Consider 2 substances from patent publication EP1137786B1.

The target of one assay is CXCR4 (UniProt P61073). Kind of assay: cell-based or functional assay.
Assay [1] has as its target CCR5 (UniProt P51681). Nature of the assay: cell-based or functional assay.
Assay [2] deals with CCR5 (UniProt P51681). Kind of assay: flow cytometry on L1.2/R5 cells. (In general: Flow cytometry measures light scatter and fluorescence of single cells or particles in a stream.)

Bounds are passed on as bounds.

Chain of CXCR4 (P61073 whole entry): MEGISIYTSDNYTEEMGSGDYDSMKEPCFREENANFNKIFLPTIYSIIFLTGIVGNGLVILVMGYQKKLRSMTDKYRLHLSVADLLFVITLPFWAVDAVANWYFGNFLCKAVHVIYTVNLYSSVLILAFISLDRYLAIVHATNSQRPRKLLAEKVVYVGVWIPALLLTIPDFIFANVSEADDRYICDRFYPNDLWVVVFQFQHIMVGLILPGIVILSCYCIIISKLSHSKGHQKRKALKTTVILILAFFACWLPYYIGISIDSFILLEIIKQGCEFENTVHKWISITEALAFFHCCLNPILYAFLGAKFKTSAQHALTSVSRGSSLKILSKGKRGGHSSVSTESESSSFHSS
Chain of CCR5 (P51681 whole entry): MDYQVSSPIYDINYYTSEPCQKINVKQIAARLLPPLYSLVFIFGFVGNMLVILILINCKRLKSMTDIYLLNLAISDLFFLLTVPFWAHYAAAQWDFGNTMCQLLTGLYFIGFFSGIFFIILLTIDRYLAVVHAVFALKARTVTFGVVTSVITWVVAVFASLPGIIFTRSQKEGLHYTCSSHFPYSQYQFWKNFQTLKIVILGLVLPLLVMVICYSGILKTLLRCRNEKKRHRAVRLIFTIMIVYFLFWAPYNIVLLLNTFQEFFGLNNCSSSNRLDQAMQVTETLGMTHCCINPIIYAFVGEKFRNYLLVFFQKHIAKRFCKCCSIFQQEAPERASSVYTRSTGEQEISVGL

In the assay with CXCR4, “gp120-CD4-IgG1 chimeric polypeptide (from UniProt P01730 26-208) (Fc fusion)” registered an ID90, neutralization of HIV 89.6 on U373/CD4/CXCR4 cells of over 10 µg/mL; an ID90, neutralization of HIV 2005 on U373/CD4/CXCR4 cells of over 10 µg/mL; an ID90, neutralization of HIV 2044 on U373/CD4/CXCR4 cells of over 10 µg/mL. In addition, in the assay with CCR5 [1], the ID90, neutralization of HIV 89.6 on U373/CD4/CCR5 cells was 3.56 µg/mL; the ID90, neutralization of HIV ADA on U373/CD4/CCR5 cells turned out to be 4.58 µg/mL; the ID90, neutralization of HIV BaL on U373/CD4/CCR5 cells stood at 3.1 µg/mL.
The substance “truncated single chain (TcSC) gp120-CD4 chimeric polypeptide (from UniProt P01730 26-208)” yielded a fold higher concentration needed to approach saturation binding, against FLSC with CCR5 [2] of 10 fold.
